Results from doi:10.1101/2020.08.07.234443 (bioRxiv, 2020).

B1: spin-labeled eIF4G1_(1-249) Q109C (domain or fragment, S. cerevisiae, UniProt P39935 1-249, looked up)
chain: MTDETAHPTQSASKQESAALKQTGDDQQESQQQRGYTNYNNGSNYTQKKPYNSNRPHQQRGGKFGPNRYNNRGNYNGGGSFRGGHMGANSSNVPWTGYYNNYPVYYQPCQMAAAGSAPANPIPVEEKSPVPTKIEITTKSGEHLDLKEQHKAKLQSQERSTVSPQPESKLKETSDSTSTSTPTPTPSTNDSKASSEENISEAEKTRRNFIEQVKLRKAALEKKRKEQLEGSSGNNNIPMKTTPENVEEK
modifications: 4-(2-iodoacetamido)-TEMPO nitroxyl spin label on C109
B2: Pab1 RRM12 (domain or fragment)
chain: not shown

Legend:
eIF4G1_(1-249) = molecular target: T1, eIF4G1_(1-249) (S. cerevisiae, UniProt P39935 1-249); test: NMR intermolecular paramagnetic relaxation enhancement
T1 sequence (looked up): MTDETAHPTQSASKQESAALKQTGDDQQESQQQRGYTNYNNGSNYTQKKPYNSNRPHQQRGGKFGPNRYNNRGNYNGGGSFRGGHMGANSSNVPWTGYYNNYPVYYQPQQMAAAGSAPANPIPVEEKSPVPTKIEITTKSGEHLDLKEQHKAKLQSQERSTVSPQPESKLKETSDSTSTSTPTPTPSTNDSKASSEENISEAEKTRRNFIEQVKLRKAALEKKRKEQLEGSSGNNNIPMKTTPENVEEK

SAXS = molecular target: the molecule itself; test: SAXS

Binder	binding result (eIF4G1_(1-249))	stoichiometry N (SAXS)
B1	binds	
B2		2
